Data set [1] is described as follows: Safety, pharmacology, and toxicology studies in animals. Type of data set: in vivo.
Data set [2] in a line: Storage stability of the aqueous precursor solution at −20 °C (formation of oxidized product). It counts as physicochemical. Particulars: at least six months.
For data set [3], the system named is glucagon receptor (GCGR). Particulars: in vitro and in vivo in rats and non-human primates; 16 (previous studies); cited from earlier work. From the text: The manufacturing process of [^68Ga]Ga-DO3A-VS-Cys^40-Tuna-2 was automated for clinical use to meet the radiation safety and good manufacturing practice (GMP) requirements. Methods: The automated synthesis platform (Modular-Lab PharmTrace, Eckert & Ziegler, E ...

For data set [4], the target named is T1, glucagon receptor (GCGR) (Homo sapiens, UniProt P47871).
T1 construct: strong liver uptake expected due to the high glucagon receptor expression on hepatocytes; from tissue; host or cells: liver (hepatocytes) of living human subjects with type 2 diabetes
It counts as in vivo, humans. An excerpt: [^68Ga]Ga-DO3A-VS-Cys^40-Tuna-2 PET/CT was used for assessing the hepatic GCGR receptor density and availability within a phase Ib, open-label study investigating the receptor occupancy of a dual GLP1/GCG agonist (ClinicalTrials.gov: NCT03350191). The results of the full receptor occupancy study, as well as the human biodistribution and dosimetry of [^68Ga]Ga-DO3A-VS-Cys^40-Tuna-2, will be reported separately. The study was approved by the Swedish Medical Products Agency and the regional ethical review board (Dnr 2017/395; EudraCT nr. 2017-001789-23).
Briefly, individuals with T2D were enrolled in the study and signed informed consent. They (n = 13) were placed in the supine position with the liver in the 20 cm axial PET field of view of a Discovery MI PET/CT scanner (GE Healthcare). [^68Ga]Ga-DO3A-VS-Cys^40-Tuna-2 (target dose 0.5 MBq/kg, <0.2 µg/kg peptide) was administered intravenously as a bolus followed by a 60 min dynamic PET acquisition in list-mode. The PET list mode data were reconstructed into 30 frames (12 × 10, 6 × 30, 5 × 120, 5 × 300, 2 × 600 s) using an iterative VPFX-S algorithm (3 iterations, 3 subsets, matrix 256 × 256, Z-axis post-filter 3 mm) with all relevant corrections performed.

The format of data set [5] is physicochemical. Here is the method:
The aseptic production was conducted in a GMP grade A workstation (unidirectional laminar airflow workbench (LAFW)) situated in a cleanroom with GMP grade B air quality. The ^68Ge/^68Ga generator (GalliaPharm®, Eckert & Ziegler, Berlin, Germany) and Modular PharmLab labeling synthesis platform (Eckert & Ziegler Eurotope, Berlin, Germany) were placed in the LAFW. A high-performance liquid chromatography system (LaChrom, Hitachi, VWR) consisting of an L-2130 pump, UV detector (L-2400), and radiation flow detector (Bioscan) coupled in series was used for product quality control. Separation of the analytes was accomplished using an analytical column with a stationary reversed phase (C-4; Vydac-C4; 50 × 4.6 mm; particle size: 3 µm). The conditions were as follows: A = 10 mM trifluoroacetic acid in water; B = 100% acetonitrile (MeCN) with 10 mM TFA with UV-detection at 220 nm; linear gradient elution: 0 min at 24% B, 0–8 min from 24 to 45% B, 8–10 min at 45% B, 10–15 min at 24% B; flow rate was 2.0 mL/min. Data acquisition and handling were performed using the EZChrom Elite Software Package (version 1.3).
Quality control on the chemical purity, radiochemical purity, and determination of the peptide concentration was performed using UV-Radio-HPLC. The development and validation of the method were conducted using two different reversed-phase columns Vydac-C4 and Aeris-C4 with mobile phases of 0.1% TFA in water as the A mobile phase and 0.1% TFA in acetonitrile as the B mobile phase. The gradient of B increased from 25% to 40% within 30 min for Aeris-4 and B increased from 24 to 45% within 8 min, followed by 2 min of isocratic elution. The recovery of radioactivity from the analytical column was investigated, in order to confirm that no radioactive product or impurities were left on the column, by collecting HPLC effluent with and without an analytical column and measuring the radioactivity. The tests were performed for both the product ([^68Ga]Ga-DO3A-VS-Cys^40-Tuna-2) and free ^68Ga(III). Specificity, linearity, and precision as repeatability were validated for both UV- and radio-detectors.
Three successful sequential productions were performed for the manufacturing validation. A fraction of pre-determined volume was kept for the subsequent determination of ^68Ge content and solvent residual content. The stability of the product at room temperature was monitored by UV-radio-HPLC for 2 h.

Data set [6] is described as follows: Sensitivity of the labelled product to (radiolytic) oxidation. It counts as physicochemical. The note with it: compared with [^68Ga]Ga-DO3A-VS-Cys^40-Exendin-4; labeling conditions.

T1 sequence (P47871 26-477): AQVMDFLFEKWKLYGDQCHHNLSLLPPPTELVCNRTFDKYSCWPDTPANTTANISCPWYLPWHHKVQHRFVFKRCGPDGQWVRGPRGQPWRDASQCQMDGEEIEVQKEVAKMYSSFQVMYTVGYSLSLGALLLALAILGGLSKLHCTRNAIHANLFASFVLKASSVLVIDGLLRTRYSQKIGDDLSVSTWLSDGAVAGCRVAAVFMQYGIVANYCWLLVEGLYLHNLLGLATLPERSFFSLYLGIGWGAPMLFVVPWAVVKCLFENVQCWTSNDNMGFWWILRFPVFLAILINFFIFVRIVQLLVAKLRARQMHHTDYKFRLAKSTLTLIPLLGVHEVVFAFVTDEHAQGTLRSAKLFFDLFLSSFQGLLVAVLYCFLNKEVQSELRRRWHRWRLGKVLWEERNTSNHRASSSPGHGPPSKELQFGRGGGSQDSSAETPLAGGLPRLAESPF

For the substance “TzaD-SerQGTFTSDYSKQLDE*QRAK*EFIEWLLATGPESGAPPPS (sidechain bridge or staple) [DO3A-VS-Cys^40-Tuna-2, unlabelled precursor (GMP-grade API starting material): Tuna-2 peptide coupled to DOTA bifunctional chelator via Cys40 and vinyl sulfone linker]”, in data set [1], the “Toxicity related to the substance” value is “no DO3A-VS-Cys^40-Tuna-2 related toxicity”. For the same substance, the “Formation of oxidized product upon storage” value in data set [2] is “no formation of the oxidized product was detected”.

For “TzaD-SerQGTFTSDYSKQLDE*QRAK*EFIEWLLATGPESGAPPPS (sidechain bridge or staple) [[^68Ga]Ga-DO3A-VS-Cys^40-Tuna-2, ^68Ga-labeled peptide-based PET imaging agent targeting GCGR; 39-residue Tuna-2 coupled to DOTA chelator via Cys40 and vinyl sulfone linker]”, the “Binding to the glucagon receptor (GCGR)” value in the data set with glucagon receptor (GCGR) [3] is listed as “high-affinity specific binding”. Also, at glucagon receptor (GCGR) [4] (T2D patients, IV bolus, baseline examinations, 60 min dynamic PET), the “Binding in the liver” value was “strong binding in the liver”. Besides, the Plasma kinetics result in the data set with glucagon receptor (GCGR) [4] (in vivo, iv) is recorded as “rapid plasma kinetics”. The “Stability: radiochemical purity 2 h postproduction” value in data set [5] is 97.9 ± 0.9%. In data set [5] (ambient temperature, Figure 5, as stated in discussion), the “RCP at ambient temperature for at least 2 h” value is reported as “over 95%”. In addition, in data set [5] (formulated product, ambient temperature, UV-radio-HPLC), the “Time for which the product was stable at ambient temperature” value is reported as “at least 2 h”. The “Radiochemical purity (RCP) after production, 1 h and 2 h post-production” value in data set [5] (formulated product, room temperature, radioactivity traces of Figure 5) is on record as “over 98%”. Besides, in data set [6], the Sensitivity to oxidation result is “less sensitive to the oxidation”.

The values are drawn from paper PMC7463542, “Automated GMP-Compliant Production of [^68Ga]Ga-DO3A-Tuna-2 for PET Microdosing Studies of the Glucagon Receptor in Humans” (Pharmaceuticals, 2020).
